Data: PMC9482650, “Quantitative fragmentomics allow affinity mapping of interactomes” (Nature Communications, 2022)

T1: MPP2, Q14168
T1 sequence (Q14168 180-250, limits assumed, looked up): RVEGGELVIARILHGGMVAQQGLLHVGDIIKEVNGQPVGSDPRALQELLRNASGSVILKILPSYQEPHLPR

T2: NHERF3_1, Q5T2W1
T2 sequence (Q5T2W1 4-100, limits assumed, looked up): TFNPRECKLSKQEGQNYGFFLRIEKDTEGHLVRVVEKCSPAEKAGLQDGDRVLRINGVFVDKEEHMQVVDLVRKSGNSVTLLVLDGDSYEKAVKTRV

T3: LIN7B, Q9HAP6
T3 sequence (Q9HAP6 88-185, limits assumed, looked up): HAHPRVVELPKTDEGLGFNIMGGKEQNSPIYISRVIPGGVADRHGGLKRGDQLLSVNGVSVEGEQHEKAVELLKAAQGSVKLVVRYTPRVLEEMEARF

T4: ARHGAP21, Q5T5U3
T4 sequence (Q5T5U3 45-169, limits assumed, looked up): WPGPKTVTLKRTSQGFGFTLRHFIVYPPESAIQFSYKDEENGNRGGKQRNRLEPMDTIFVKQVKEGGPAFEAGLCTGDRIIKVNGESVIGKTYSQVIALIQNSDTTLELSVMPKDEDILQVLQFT

T5: DLG3_2, Q92796
T5 sequence (Q92796 221-321, limits assumed, looked up): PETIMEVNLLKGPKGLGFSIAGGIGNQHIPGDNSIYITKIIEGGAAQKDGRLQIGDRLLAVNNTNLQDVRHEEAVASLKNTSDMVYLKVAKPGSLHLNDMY

T6: GRIP1_4, Q9Y3R0
T6 sequence (Q9Y3R0 467-571, limits assumed, looked up): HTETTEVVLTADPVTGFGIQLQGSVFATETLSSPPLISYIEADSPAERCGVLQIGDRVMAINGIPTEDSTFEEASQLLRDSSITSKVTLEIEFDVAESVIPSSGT

T7: TIAM2, Q8IVF5
T7 sequence (Q8IVF5 885-986, limits assumed, looked up): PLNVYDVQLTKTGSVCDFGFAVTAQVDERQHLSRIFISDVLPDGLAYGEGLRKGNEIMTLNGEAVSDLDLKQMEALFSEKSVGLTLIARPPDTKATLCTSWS

T8: LNX2_3, Q8N448
T8 sequence (Q8N448 463-564, limits assumed, looked up): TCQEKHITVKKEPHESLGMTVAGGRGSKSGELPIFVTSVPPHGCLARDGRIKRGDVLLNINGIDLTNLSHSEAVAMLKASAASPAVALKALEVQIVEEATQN

T9: HTRA3, P83110
T9 sequence (P83110 354-453, limits assumed, looked up): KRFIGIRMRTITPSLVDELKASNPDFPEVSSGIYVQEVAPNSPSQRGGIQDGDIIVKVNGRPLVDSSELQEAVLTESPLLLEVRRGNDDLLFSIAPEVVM

T10: GRIP1_5, Q9Y3R0
T10 sequence (Q9Y3R0 568-668, limits assumed, looked up): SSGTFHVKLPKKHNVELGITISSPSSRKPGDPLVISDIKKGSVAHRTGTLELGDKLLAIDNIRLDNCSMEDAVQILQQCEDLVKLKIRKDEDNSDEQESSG

T11: RADIL, Q96JH8
T11 sequence (Q96JH8 971-1071, limits assumed, looked up): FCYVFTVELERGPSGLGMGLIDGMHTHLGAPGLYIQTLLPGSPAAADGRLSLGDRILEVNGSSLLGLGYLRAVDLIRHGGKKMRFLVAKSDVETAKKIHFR

T12: LNX2_2, Q8N448
T12 sequence (Q8N448 334-432, limits assumed, looked up): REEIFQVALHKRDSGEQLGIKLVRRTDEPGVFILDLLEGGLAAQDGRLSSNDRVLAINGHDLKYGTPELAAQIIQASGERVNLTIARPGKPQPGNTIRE


Key:
Assay in all cases: holdup assay
Design in all cases: key: below the threshold = too weak to quantify, mostly under pKd 3.1 to 4
Conditions in all cases: plain residues with an end cap or a label only (N-terminal biotin on a linker: ado-ado)
MPP2, Q14168 = target: T1, MPP2, Q14168
NHERF3_1, Q5T2W1 = target: T2, NHERF3_1, Q5T2W1
LIN7B, Q9HAP6 = target: T3, LIN7B, Q9HAP6
MAGI2_2, Q86UL8 = target: MAGI2_2, Q86UL8
Sequence of MAGI2_2, Q86UL8 (Q86UL8 410-522): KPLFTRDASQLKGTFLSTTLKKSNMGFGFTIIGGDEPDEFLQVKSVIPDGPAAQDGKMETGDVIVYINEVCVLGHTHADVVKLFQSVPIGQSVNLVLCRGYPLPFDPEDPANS

ARHGAP21, Q5T5U3 = target: T4, ARHGAP21, Q5T5U3
DLG3_2, Q92796 = target: T5, DLG3_2, Q92796
FRMPD4, Q14CM0 = target: FRMPD4, Q14CM0
Sequence of FRMPD4, Q14CM0 (Q14CM0 67-160): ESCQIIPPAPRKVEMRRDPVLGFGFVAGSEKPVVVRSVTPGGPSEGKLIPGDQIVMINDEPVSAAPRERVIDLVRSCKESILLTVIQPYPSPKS

GRIP1_4, Q9Y3R0 = target: T6, GRIP1_4, Q9Y3R0
TIAM2, Q8IVF5 = target: T7, TIAM2, Q8IVF5
LNX2_3, Q8N448 = target: T8, LNX2_3, Q8N448
HTRA3, P83110 = target: T9, HTRA3, P83110
GRIP1_5, Q9Y3R0 = target: T10, GRIP1_5, Q9Y3R0
GRIP2_5, Q9C0E4 = target: GRIP2_5, Q9C0E4
Sequence of GRIP2_5, Q9C0E4 (Q9C0E4 544-642): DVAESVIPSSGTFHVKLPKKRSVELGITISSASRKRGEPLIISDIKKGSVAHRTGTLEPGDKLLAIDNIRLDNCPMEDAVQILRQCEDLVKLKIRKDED

MAST2, Q6P0Q8 = target: MAST2, Q6P0Q8
Sequence of MAST2, Q6P0Q8 (Q6P0Q8 1099-1202): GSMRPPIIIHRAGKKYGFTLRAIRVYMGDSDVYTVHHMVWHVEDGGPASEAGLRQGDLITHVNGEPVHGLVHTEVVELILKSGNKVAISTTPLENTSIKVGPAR

PARD3_3, Q8TEW0 = target: PARD3_3, Q8TEW0
Sequence of PARD3_3, Q8TEW0 (Q8TEW0 582-685): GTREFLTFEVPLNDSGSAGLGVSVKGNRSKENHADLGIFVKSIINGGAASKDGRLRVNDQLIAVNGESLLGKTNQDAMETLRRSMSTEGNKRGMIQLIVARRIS

IL16_3, Q14005 = target: IL16_3, Q14005
Sequence of IL16_3, Q14005 (Q14005 1107-1207): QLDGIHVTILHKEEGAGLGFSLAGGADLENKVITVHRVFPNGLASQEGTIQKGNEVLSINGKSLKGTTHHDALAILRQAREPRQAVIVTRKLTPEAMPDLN

NOS1, P29475 = target: NOS1, P29475
Sequence of NOS1, P29475 (P29475 9-101): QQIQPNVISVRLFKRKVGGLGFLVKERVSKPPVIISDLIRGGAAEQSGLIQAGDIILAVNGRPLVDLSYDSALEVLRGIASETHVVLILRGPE

TJP2_1, Q9UDY2 = target: TJP2_1, Q9UDY2
Sequence of TJP2_1, Q9UDY2 (Q9UDY2 24-128): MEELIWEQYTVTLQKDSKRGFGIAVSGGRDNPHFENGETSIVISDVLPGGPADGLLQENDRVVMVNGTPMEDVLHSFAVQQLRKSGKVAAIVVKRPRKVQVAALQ

RADIL, Q96JH8 = target: T11, RADIL, Q96JH8
Inadl_2, Q8NI35 = target: Inadl_2, Q8NI35
Sequence of Inadl_2, Q8NI35 (Q8NI35 238-335): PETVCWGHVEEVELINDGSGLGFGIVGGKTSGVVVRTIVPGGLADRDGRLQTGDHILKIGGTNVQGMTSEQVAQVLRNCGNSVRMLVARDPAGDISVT

LNX2_2, Q8N448 = target: T12, LNX2_2, Q8N448
IL16_4, Q14005 = target: IL16_4, Q14005
Sequence of IL16_4, Q14005 (Q14005 1229-1329): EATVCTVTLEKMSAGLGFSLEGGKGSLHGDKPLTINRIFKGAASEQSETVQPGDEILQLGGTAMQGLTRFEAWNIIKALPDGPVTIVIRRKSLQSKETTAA

LAP2, Q96RT1 = target: LAP2, Q96RT1
Sequence of LAP2, Q96RT1 (Q96RT1 other isoform, or with tags, fused parts or gaps): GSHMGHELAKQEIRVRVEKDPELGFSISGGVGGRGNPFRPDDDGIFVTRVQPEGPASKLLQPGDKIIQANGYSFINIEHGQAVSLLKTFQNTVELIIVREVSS

DLG1_1, Q12959 = target: DLG1_1, Q12959
SNX27, Q96L92 = target: SNX27, Q96L92

Binder | pKd (MPP2, Q14168) | pKd (NHERF3_1, Q5T2W1) | pKd (LIN7B, Q9HAP6) | pKd (MAGI2_2, Q86UL8) | pKd (ARHGAP21, Q5T5U3) | pKd (DLG3_2, Q92796) | pKd (FRMPD4, Q14CM0) | pKd (GRIP1_4, Q9Y3R0) | pKd (TIAM2, Q8IVF5) | pKd (LNX2_3, Q8N448) | pKd (HTRA3, P83110) | pKd (GRIP1_5, Q9Y3R0) | pKd (GRIP2_5, Q9C0E4) | pKd (MAST2, Q6P0Q8) | pKd (PARD3_3, Q8TEW0) | pKd (IL16_3, Q14005) | pKd (NOS1, P29475) | pKd (TJP2_1, Q9UDY2) | pKd (RADIL, Q96JH8) | pKd (Inadl_2, Q8NI35) | other results
TPPAAKKSRI [BAZ1A, Q9NRL2] | below the threshold | below the threshold | 3.62 | below the threshold | 3.58 | below the threshold | below the threshold | below the threshold | below the threshold | below the threshold | below the threshold | below the threshold | below the threshold | below the threshold | below the threshold | below the threshold | 3.51 | below the threshold | below the threshold | below the threshold | pKd (LNX2_2, Q8N448): below the threshold; pKd (IL16_4, Q14005): 3.69; pKd (LAP2, Q96RT1): below the threshold; pKd (DLG1_1, Q12959): below the threshold; pKd (SNX27, Q96L92): below the threshold
LSEFKAMDSI [CTNNA1, P35221] | below the threshold | below the threshold | 3.74 | below the threshold | 4.01 | 3.56 | below the threshold | below the threshold | 3.48 | below the threshold | below the threshold | below the threshold | below the threshold | below the threshold | below the threshold | below the threshold | below the threshold | below the threshold | below the threshold | below the threshold | pKd (LNX2_2, Q8N448): below the threshold; pKd (IL16_4, Q14005): below the threshold; pKd (LAP2, Q96RT1): below the threshold; pKd (DLG1_1, Q12959): below the threshold; pKd (SNX27, Q96L92): below the threshold
VNKSKLLTDV [KCNA1, Q09470] | below the threshold | below the threshold | 3.78 | 4.06 | below the threshold | 4.7 | below the threshold | below the threshold | 3.95 | below the threshold | below the threshold | below the threshold | below the threshold | 5.07 | below the threshold | below the threshold | below the threshold | below the threshold | below the threshold | below the threshold | pKd (LNX2_2, Q8N448): below the threshold; pKd (IL16_4, Q14005): below the threshold; pKd (LAP2, Q96RT1): below the threshold; pKd (DLG1_1, Q12959): 4.11; pKd (SNX27, Q96L92): below the threshold
SKENVQETQI [LRRC4B, Q9NT99] | below the threshold | 5.07 | 4.13 | below the threshold | below the threshold | 4.69 | below the threshold | below the threshold | 4.1 | below the threshold | below the threshold | below the threshold | below the threshold | 5.56 | 3.78 | below the threshold | 3.85 | below the threshold | below the threshold | below the threshold | pKd (LNX2_2, Q8N448): below the threshold; pKd (IL16_4, Q14005): below the threshold; pKd (LAP2, Q96RT1): 3.69; pKd (DLG1_1, Q12959): 4.23; pKd (SNX27, Q96L92): 5.55
EVNETDDTKM [KCNJ1, P48048] | below the threshold | 5.39 | below the threshold | below the threshold | 3.96 | 3.63 | 3.75 | below the threshold | below the threshold | below the threshold | below the threshold | below the threshold | below the threshold | 4.83 | below the threshold | below the threshold | below the threshold | below the threshold | 3.56 | below the threshold | pKd (LNX2_2, Q8N448): below the threshold; pKd (IL16_4, Q14005): 3.64; pKd (LAP2, Q96RT1): 3.5; pKd (DLG1_1, Q12959): below the threshold; pKd (SNX27, Q96L92): 4.6
NLSIEKETKL [ASNSD1, Q9NWL6] | below the threshold | 6.04 | 4.47 | below the threshold | below the threshold | 4.24 | 4.28 | below the threshold | 3.94 | below the threshold | below the threshold | below the threshold | below the threshold | 5.62 | below the threshold | below the threshold | below the threshold | below the threshold | below the threshold | below the threshold | pKd (LNX2_2, Q8N448): below the threshold; pKd (IL16_4, Q14005): below the threshold; pKd (LAP2, Q96RT1): 3.52; pKd (DLG1_1, Q12959): below the threshold; pKd (SNX27, Q96L92): 5.65
